Assay results taken from a protein production outcome set (Wang et al. 2014).

Assay: label from the status in PepcDB records

Sequence | protein production
MLDFYALEDLLTPEEKEVQKAARRFLEKEALPHIRDWWEEGVFPTHLIPRFAELGFLGPTLPPEYGGAGVSSAAYGLICYELERVDSGLRSFVSVQSSLVMYPIYAYGSEEQKREFLPKLARGEMVGCFGLTEPDGGSDPYGNMKTRARREGDTWVLNGTKMWITNGNLAHLAVIWAKDEGGEVLGFLVPTDTPGFQAREVKRKMSLRASVTSELVLEEVRVPESLRLPKALGLKAPLSCLTQARFGIAWGAMGALEAVYEEAVAFAKSRSTFGEPLAKKQLVQAKLAEMLAWHTEGLLLAWRLARLKDEGKLTPAQVSLAKRQNVWKALQAARMARDILGGSGITLEYHAIRHMLNLETVYTYEGTHDVHTLVLGREITGLNAF | not failed
MKHMKTFVIIGLSNLGIHLLEDLSRLDCQIIIIDTSKELIEEYDVISTESFVVEQFTKNALKRIIPVDTDAVVIDFDDDLGKSALVTHYCNLLGLKEICVKTENRDDAEILKTLGATKIIFPSKDAARRLTPLLVSPNLSTYNIIGYDIIVAETVIPKEYVGKTLFEADLRRECGITVIAVRNLSNSRYEFVDGDYFFLKDDKIVICGKPDSIENFTNNKDLIKDLISGSKEDENLNKDAEKKSRFLGIFNFMKIFQKDRKDN | failed
MDDDPHFDQNVQTVIAKTEAYITESVKAGGTGRALRDAHAKGYGLVRGEVEILDGLPPEYAQGIYATPGTHDALIRFSNGSPHAGADARLGAATGLALKIFDIPGPTLLEDEPDTGTFDYANINGPIFFCNTVEHYLFIQELFLNAPAYFSQGRPGAHRFFTDFVTGKGTLDQDDWAWDEFLAFLRLSKTPPANLLLSSYWTMGAVRHGDYIAKVRITPDPSFAAAVVRRDIDPTSAQEVFRPALEAELQERPYAFDIQVQLCTDLERMPVEDTTVEWPEQLSPSVTVAKLRLPRQDISGPENLEKMDSLSFTPWRVTAEHAPLGNIMRSRKEVYRQSSMELEHHHHHH | failed
SLRLHAGVWGLKVRYEGSFEVSKTPEEVFEFLTDPKRFSRAFPGFKSVEVEDGSFTIELRLSLGPLRGDARVRASFEDLEKPSKATVKGSGRGAGSTLDFTLRFAVEPSGGGSRVSWVFEGNVGGLAASMGGRVLDSLARRMINDVISGVKRELGEA | not failed
MRNSNGGRDNRKSNRDQYRKPDYAGEMLFDDEEDYDDDADYDVVDDMKAHNDDYSDSAFGPDADNYDTDDDAWHDDVAAADDDPSDEDGYYDEEYDDTEDWQDMKDSKRKKKNRVWGIILALEIVTAIVIGVLFVKSYINNTYSKMQYNELKNTHINEDLNEESVKKMTGYTNIALFGIDTRDSGMVDDGVRSDSIIICSINNDTQEVKLLSVYRDTYLELCNDSQSYEKAAHAYAYGGAQGAVNMLNKNLDLNITDYVAVNFTALTEAIDALGGIDVELKEEELYKLNQCIDEQMGVNGIYSDYVYDTGVVHLNGVQATAYSRIRSTDEGDITRTWRQRTVISKMIEAAKSAGLSRLLDCINVVVDDVASSLTESEIMDMAKSCFNYKLSTTTGFPFTIASPTMNDVSYVVACDLATNATALHRFLFNDSNYTPSATVQNISDNIVNESGYGNQLDLDTFTVEDDVDSIVNTESDDY | failed
MPSEKQPQSKGNKMAILKLDEHLYISPQLTKADAEQIAQLGIKTIICNRPDREEESQPDFAQIKQWLEQAGVTGFHHQPVTARDIQKHDVETFRQLIGQAEYPVLAYCRTGTRCSLLWGFRRAAEGMPVDEIIRRAQAAGVNLENFRERLDNARV | not failed
EHFNDMIEKRVKSEIRNQVDLKKPMVRISVAISGGKDSSVTLYLLHKILSKRRNVELTAFTVDEGISGYRPAGLESAIKLTKMLGVDHSIIRFQDSFGMTLDSIVGADASRIPCSYCGPLRRKLINEMAERQNADYVALGLNLDDYSQSILMNVAKGDYDRLLRMSPQKEAKDGLVRRIAPLRSVLEKEVVLYAVINGIPFDSSWC | failed
MSSPFPADTPSSNRPSNSSPPPSSIGAGFGSSSGLDSQIGSRLHFPSSSQPHVSNSQTGPFVNDSTQFSSQRLQTDGSATNDMEGNEPARSFKSRALNHVKKVDDVTGEKVREAFEQFLEDFSVQSTDTGEVEKVYRAQIEFMKIYDLNTIYIDYQHLSMRENGALAMAISEQYYRFLPFLQKGLRRVVRKYAPELLNTSDSLKRSEGDEGQADEDEQQDDDMNGSSLPRDSGSSAAPGNGTSAMATRSITTSTSPEQTERVFQISFFNLPTVHRIRDIRSEKIGSLLSISGTVTRTSEVRPELYKASFTCDMCRAIVDNVEQSFKYTEPTFCPNPSCENRAFWTLNVTRSRFLDWQKVRIQENANEIPTGSMPRTLDVILRGDSVERAKPGDRCKFTGVEIVVPDVTQLGLPGVKPSSTLDTRGISKTTEGLNSGVTGLRSLGVRDLTYKISFLACHVISIGSNIGASSPDANSNNRETELQMAANLQANNVYQDNERDQEVFLNSLSSDEINELKEMVKDEHIYDKLVRSIAPAVFGHEAVKKGILLQMLGGVHKSTVEGIKLRGDINICVVGDPSTSKSQFLKYVVGFAPRSVYTSGKASSAAGLTAAVVRDEEGGDYTIEAGALMLADNGICCIDEFDKMDISDQVAIHEAMEQQTISIAKAGIHATLNARTSILAAANPVGGRYNRKLSLRGNLNMTAPIMSRFDLFFVILDDCNEKIDTELASHIVDLHMKRDEAIEPPFSAEQLRRYIKYARTFKPILTKEARSYLVEKYKELRKDDAQGFSRSSYRITVRQLESMIRLSEAIARANCVDEITPSFIAEAYDLLRQSIIRVDVDDVEMDEEFDNIESQSHAASGNNDDNDDGTGSGVITSEPPADIEEGQSEATARPGTSEKKKTTVTYDKYVSMMNMIVRKIAEVDREGAEELTAVDIVDWYLLQKENDLGSLAEYWEERRLAFKVIKRLVKDRILMEIHGTRHNLRDLENEENENNKTVYVIHPNCEVLDQLEPQDSS | failed
MSGSAADPPSPDRLAGVFSVSSVRRTDGTVQYLGNPLVPPDAVAEQLRPVFRQRGYDVRLEELGPESATGTTVTSNGETTVVDDPGANDSIAPGGAVNTRPGQYALVAEPVGTDTGGVPWLNIGLLLATIASTLYVGASAWYYIPVAKNPLRVFEAWPFMVAMLGVLGIHELGHYAAARYHGVDVTLPYFIPFPSYLGTMGAVINIRGRIPDRTALFDIGVAGPLAGLVATTIVTVIGLSIDPITVPERVANSDTGVIITFNYPLLFQALEALVNALGLGTEVGPGESVHPIVFAGWAGMFFTFLNLLPVGQLDGGHIVRSIVGRRQETIAAAVPGALFALAGYLYFTRDPPPVGFGVWGLWVFWGLFATGLAYAGPARPTVDTALDRRRALLGLFTFLLGIACFTPVPFEISAV | failed
AWQAAVASNEPFGEAQLAQRIRRYLPEQGQLFVGNSLVVRLIDALAQLPAGYPVYSNRGASGIDGLIATAAGVQRASARPTLAIVGDLSALYDLNSLALLRQASAPLVLIVVNNNGGQIFSMLPTPQDERRQFYLMPQDVDFSHAAVMFGLAYHRPDDWPSLDEALAGAWRRAGATVIELAVNETDGAQTLQQLLAQVSRL | failed
MRLSISLGESPCISSLKVRGFTASPQTPNLSISVIVTAFNRREYLRYALLSLKNQEADSFEVVVSKNFSDRVTDKFCSENGFINVTTDSSRSGERVYDALRSSHGDFILFLDDDDIFRRTKISRVSDVISKRNVAFYRNAIFPVTVDGVIATHYQPQMHDPLYLILERVSDVRLLHRHACDFNSSSMGISRSMLDSHASDLRKINLAVDTFYFALAASSRMPLFCDSMIESIYRIMPSSTSRDLRDFYLFSRFERSFLRRYVPDLERIAEIVEGSPAKPVIGRMLSLYKILQYVFEEDRVNLKPSPLDRVRFLLERPFPYSLLYSRIFRDAAMRSEFRRENRIVYGNADRRRRLEHHHHHH | not failed
MQLLKELCSIHAPSGNEEPLKDFILEYIRSNAGSWSYQPVIYADNDLQDCIVLVFGNPRTAVFAHMDSIGFTVSYNNHLHPIGSPSAKEGYRLVGKDSNGDIEGVLKIVDEEWMLETDRLIDRGTEVTFKPDFREEGDFILTPYLDDRLGVWTALELAKTLEHGIIAFTCWEEHGGGSVAYLARWIYETFHVKQSLICDITWVTEGVEAGKGVAISMRDRMIPRKKYVNRIIELARQTDIPFQLEVEGAGASDGRELQLSPYPWDWCFIGAPEKDAHTPNECVHKKDIESMVGLYKYLMEKL | not failed
MQINGKAPRNKDLEPHSFELWLNAAKTNLDKYEMALIITATLGLRRGEVMGLRNESIKISHDQINDADVAQISIDMQRNTNELNGGPLKTKSSYRTIWAFGKTVDHLKYAMITADNLRQRNNIQAEKHWLWLNNDGNPLHPTHLNRLMRRVSNRSGVEVYPHLLRHYFATQAIAANKPQIDVMHYLGHKNLQMTADYTRSTKAASLNVFNSIDKFLLEHHHHHH | not failed
MAMVVGVAMGNIALGAETVGQINEAYKTKPMLKKPLDECSMRYKTIVDVDVHTAIISIKGNPKFAEGAVVDAGVEASICEGGFTKGQSPLTSLTQRMEKICDVTRAIIRMLL | failed
MEKVKKIVLIGASGFVGSALLNEALNRGFEVTAVVRHPEKIKIENEHLKVKKADVSSLDEVCEVCKGADAVISAFNPGWNNPDIYDETIKVYLTIIDGVKKAGVNRFLMVGGAGSLFIAPGLRLMDSGEVPENILPGVKALGEFYLNFLMKEKEIDWVFFSPAADMRPGVRTGRYRLGKDDMIVDIVGNSHISVEDYAAAMIDELEHPKHHQERFTIGYLEHHHHHH | failed
MASRFSRVVLVLIDALRFDFAQPQHSHVPREPPVSLPFLGKLSSLQRILEIQPHHARLYRSQVDPPTTTMQRLKALTTGSLPTFIDAGSNFASHAIVEDNLIKQLTSAGRRVVFMGDDTWKDLFPGAFSKAFFFPSFNVRDLDTVDNGILEHLYPTMDSGEWDVLIAHFLGVDHCGHKHGPHHPEMAKKLSQMDQVIQGLVERLENDTLLVVAGDHGMTTNGDHGGDSELEVSAALFLYSPTAVFPSTPPEEPEVIPQVSLVPTLALLLGLPIPFGNIGEVMAELFSGGEDSQPHSSALAQASALHLNAQQVSRFLHTYSAATQDLQAKELHQLQNLFSKASADYQWLLQSPRAEATLPTVIAELQQFLRGARAMCIESWARFSLVRMAGGTALLAASCFICLLASQWAISPGFPFCPLLLTPVAWGLVGAIAYAGLLGTIELKLDLVLLGAVAAVSSFLPFLWKAWAGWGSKRPLATLFPIPGPVLLLLLFRLAVFFSDSFVVAEARATPFLLGSFILLLVVQLHWEGQLLPPKLLTMPRLGTSATTNPPRHNGAYALRLGIGLLLCTRLAGLFHRCPEETPVCHSSPWLSPLASMVGGRAKNLWYGACVAALVALLAAVRLWLRRYGNLKSPEPPMLFVRWGLPLMALGTAAYWALASGADEAPPRLRVLVSGASMVLPRAVAGLAASGLALLLWKPVTVLVKAGAGAPRTRTVLTPFSGPPTSQADLDYVVPQIYRHMQEEFRGRLERTKSQGPLTVAAYQLGSVYSAAMVTALTLLAFPLLLLHAERISLVFLLLFLQSFLLLHLLAAGIPVTTPGPFTVPWQAVSAWALMATQTFYSTGHQPVFPAIHWHAAFVGFPEGHGSCTWLPALLVGANTFASHLLFAVGCPLLLLWPFLCESQGLRKRQQPPGNEADARVRPEEEEEPLMEMRLRDAPQHFYAALLQLGLKYLFILGIQILACALAASILRRHLMVWKVFAPKFIFEAVGFIVSSVGLLLGIALVMRVDGAVSSWFRQLFLAQQR | failed
MKLAYWMYAGPAHIGTLRVATSFKNVHAIMHAPLGDDYFNVMRSMLSRERDFTPVTTSVVDRHVLARGSQEKVVDNITRKDAEERPDLIVLTPTCTSSILQEDLENFVERAQLEAKGDVLLADVNHYRVNELQAGDRTLHQIVQYYIEKARKKGELPEGKTAKPSVNIIGISTLGFHNNHDCTELKRLMADLGIEVNAVIPEGASVHELKNLPRAWFNLVPYRELGLMTANYLEKEFGTPCIDIVPMGVVETARCIRKIQEVINAQGADVNYEDYINEQTLYVSQAAWFSRSIDCQNLTGKKAVVFGDNTHAAALTKILSREMGIHVVWAGTYCKYDADWFREQVSEYCDEVLITEDHGEIGDAIARVEPSAIFGTQMERHVGKRLDIPCGVIAAPIHVQNFPIGYKPFLGYEGTNQITDLIYNSFTLGMEDHLLEIFGGHDTKEVITKGISAGSDLSWTKDGLAELNKIPGFVRGKVKRNTEKFARDRGFKDISAEVLYAAKEAVGA | failed
